Assay results taken from patent publication US20100209400A1, “TAK1-Mediated Regulation of Osteogenesis” (priority 2003, published 2010).
Each block holds one molecule with its values, some of them ahead of it.

Legend:
[1] = test system: C3H10T½-BMP2 cells; assay: FACS for apoptosis and cell cycle progression; format: cell-based, murine; settings: CDDP 25 μM, TAK1 variants stably co-expressed; for apoptosis (subG0-G1 peak): etoposide 10 μM
Experimental: Exponentially growing cells were harvested 48 hours post-seeding or at different stages at and after confluence by trypsinization and fixation with 80% methanol. Cellular DNA content was determined by staining cells with RNAseS/propidium iodide, and measuring fluorescence in a Becton Dickinson FACScan. For each cell population, 10,000 cells were analyzed, and the proportions in G0/G1, G2/M and S-phases were estimated by using Modfit cell cycle analysis software. Information on cell size (e.g. due to differentiation) and complexity could be obtained from forward and side scatter data following evaluation of relevant cell populations.
To determine whether TAK1-mediated effects in the assay systems above resulted from apoptosis, C3H10T½-BMP2 cells co-expressing TAK1 variants were assayed by FACS for apoptosis and cell cycle progression.

[2] = test system: SMAD proteins; assay: Co-immunoprecipitation of TAK1 variants with SMADs from HEK293T cells; format: binding; settings: SMAD7, R-SMADs 1-3, 5, SMAD4
Experimental: (§1) Co-immunoprecipitation were conducted as described (Verschueren K et al, J. Biol. Chem, 274: 20489-20498, 1999). Human embryonic kidney (HEK) 293T cells were plated at 3×10^6 cells/petri dish (55 square centimeters (cm^2)) one day prior to transfection. For transient transfections, 1 μg of Flag-tagged expression plasmid and 2 μg of Myc- or HA-tagged expression plasmids were utilized. DNA content was normalized with empty vector. Transfections were performed with FuGENE6 (Roche, Mannheim). Roughly 36 hours post-transfection cells were dislodged from dishes and harvested by centrifugation. Pellets were shock frozen in liquid nitrogen. […] reactions were performed in lysis buffer. Cell extracts and immunoprecipitates were analyzed by SDS-PAGE and Western blot analysis using the appropriate antibodies.
Toward this end, co-immunoprecipitation with various combinations of wild-type TAK1 (TAK1wt) and R-SMADs, either in a latent form or post-activation by constitutively active BMP type I receptor (ALK6ca, BMPR-IB) or activin type I receptor ALK4ca (ActR-IB), I-SMADs and SMAD4, were conducted. […] TAK1 interaction with R-SMADs was typically stronger in the absence of constitutively active receptors (the exception being SMAD3), which may reflect a reduced affinity for activated, i.e. phosphorylated R-SMADs by TAK1, except with SMAD3.
SMAD proteins only bind TAK1 with an intact or a constitutively active kinase domain. Different TAK1 variants such as TAK1wt, TAK1ca, TAK1dn and two deletions, TAKDN (lacking amino acids 1-300; FIG. 1a) and TAKDC (lacking 301-606; FIG. 1a), respectively, were tested for their ability to bind to R-SMADs (using SMAD1 as a representative) or I-SMAD6 and I-SMAD7.

[3] = biological target: T1, SMAD1:SMAD4 interaction (Homo sapiens, UniProt Q13485+Q15797); assay: Co-immunoprecipitation of SMAD1:SMAD4 hetero-oligomerization in HEK293T cells; format: cell-based; settings: receptor-mediated hetero-oligomerization
T1 construct: expressed in transfected cells; host or cells: HEK293T
T1 sequence (Q15797 whole entry): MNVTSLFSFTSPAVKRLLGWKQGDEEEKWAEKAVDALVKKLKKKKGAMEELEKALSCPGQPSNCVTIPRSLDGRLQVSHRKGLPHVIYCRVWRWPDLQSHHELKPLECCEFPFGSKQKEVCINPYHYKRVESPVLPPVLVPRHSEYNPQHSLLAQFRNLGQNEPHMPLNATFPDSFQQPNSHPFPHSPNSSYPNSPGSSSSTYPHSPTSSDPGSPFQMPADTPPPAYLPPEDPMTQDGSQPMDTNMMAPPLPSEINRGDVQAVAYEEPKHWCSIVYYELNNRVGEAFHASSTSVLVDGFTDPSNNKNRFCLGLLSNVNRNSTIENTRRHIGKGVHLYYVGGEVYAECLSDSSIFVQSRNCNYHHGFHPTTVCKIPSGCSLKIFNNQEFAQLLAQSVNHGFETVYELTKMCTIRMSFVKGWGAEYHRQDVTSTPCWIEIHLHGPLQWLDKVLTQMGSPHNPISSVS
T1 sequence (Q13485 whole entry): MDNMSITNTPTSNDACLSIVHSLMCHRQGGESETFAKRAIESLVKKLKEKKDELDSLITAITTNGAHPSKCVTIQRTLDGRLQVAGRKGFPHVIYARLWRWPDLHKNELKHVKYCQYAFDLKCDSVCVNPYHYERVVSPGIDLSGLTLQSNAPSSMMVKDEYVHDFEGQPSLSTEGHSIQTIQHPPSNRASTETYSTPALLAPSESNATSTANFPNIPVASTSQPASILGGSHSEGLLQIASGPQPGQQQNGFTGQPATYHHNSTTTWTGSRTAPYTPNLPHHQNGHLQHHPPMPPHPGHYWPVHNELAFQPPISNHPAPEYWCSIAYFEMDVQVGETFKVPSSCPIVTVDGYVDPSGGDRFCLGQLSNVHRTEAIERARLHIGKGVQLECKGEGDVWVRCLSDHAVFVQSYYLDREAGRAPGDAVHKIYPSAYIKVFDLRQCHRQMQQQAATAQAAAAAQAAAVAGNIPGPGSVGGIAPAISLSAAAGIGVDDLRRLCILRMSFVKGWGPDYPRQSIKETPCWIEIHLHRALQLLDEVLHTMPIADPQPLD
Experimental: as §1
R-SMAD hetero-oligomerization with SMAD4 and subsequent accumulation in the nucleus is essential for biological activity.

[4] = test system: SMAD1-mediated transcription; assay: SMAD1-SBE CAT reporter assay; format: cell-based, human; settings: dose-dependent, following activation by constitutively active receptors
Experimental: Reporter assays using the GALA DNA binding domain fused to various forms of SMAD proteins were performed as described (Meersseman, G at al, Mech. Dev, 61: 127-140, 1997). Briefly, 420 nanograms (ng) DNA was transfected/well (24 well-plate seeded with 1×10^5 HEK 293T cells) one day prior to transfection. The DNA mix included a plasmid expressing β-galactosidase under the control of the RSV promoter, for normalization purposes and a reporter plasmid encoding firefly luciferase under the control of 5 GAL4 binding sites upstream of a minimal TATA box (pG5 luc, Promega, Mannheim) and combinations of effector plasmids. The DNA content was normalized with empty vector.
Cells were harvested and lysed. β-Galactosidase (β-gal) activity was measured via the luminescent β-galactosidase kit II (Clontech, Palo Alto, Calif.), and luciferase activity via the luciferase assay system (Promega, Mannheim). All results are expressed as luciferase activity normalized with β-gal values (“relative luciferase activities”). Reporter assays with the SMAD1 DNA binding element SBE-9 (GCCG×9) (Kusanagi K et al, Mol Biol Cell 11: 555-565, 2000) cloned into pCAT5 vector (Boshart M et al, Gene 110: 129-130, 1992) were performed similarly except that cells were lysed in CAT lysis buffer. CAT enzyme was measured via CAT ELISA assay and β-gal via chemiluminescent β-gal reporter gene assay (Roche, Mannheim). […]

[5] = test system: C3H10T½-BMP2 cells; assay: Histological analysis and alkaline phosphatase staining of C3H10T½-BMP2 cells; format: cell-based, murine
Experimental: Murine C3H10T½ progenitor cells were cultured in high-glucose DMEM containing 10% fetal calf serum, as described (Ahrens Met al, DNA Cell Biol, 12: 871-880, 1993). Cells were stably transfected with expression plasmids encoding wt TAK1, dominant-negative (dn) or constitutively active (ca) TAK1 in pMT7T3-f1 using DOSPER™ according to the manufacturer's protocol (Roche, Mannheim) and a selection plasmid conferring puromycin resistance (pBSpacDp: parental C3H10T½ cells) or G418-resistance (pAG60: BMP2-expressing C3H10T½ cells). Individual clones were picked, propagated, and tested for recombinant expression of TAK1-variants by RT-PCR using a vector-specific and a gene-specific primer. Control cell lines (empty to expression vector) were established at the same time. Cells were plated at a density of 5,000 cells/cm^2. After reaching confluence (arbitrarily termed day 0) ascorbic acid (50 microgram/milliliter (μg/ml)) and b-glycerophosphate (10 millimolar (mM)) were added.
(§2) Proteoglycan-secreting chondrocytes were identified by staining with Alcian Blue at pH 2.5 (Alcian Blue 8GS, Roth, Karlsruhe).
Osteoblast formation was evaluated as a measure of TAK1 influence on osteo-/chondrogenic differentiation potential. C3H10T½-BMP2 cells co-expressing TAK1 and its molecular variants were assessed histologically for alkaline phosphatase (ALP) activity (FIG. 8C), which is indicative of osteoblast differentiation.

[6] = test system: C3H10T½-BMP2 cells; assay: Semi-quantitative RT-PCR of osteo-/chondrogenic marker genes and Alcian Blue staining; format: cell-based, murine; settings: co-expression in C3H10T½-BMP2 cells
Experimental: as §2
Total cellular RNA was prepared by TriReagent LS according to the manufacturer's protocol (Molecular Research Center Inc., Ohio, Miss.). Five μg of total RNA was reverse transcribed with oligo-dT primers and cDNA aliquots were subjected to PCR. RT-PCR was normalized by the transcriptional levels of HPRT. The primer pairs and PCR conditions used to evaluate osteo-/chondrogenic differentiation, for collagen Ia1, collagen IIa1, osteocalcin, and the PTH/PTHrP-receptor have been described (Hoffmann A et al, J. Cell Sci 115: 769-781, 2002).

[7] = test system: p38 MAPK and JNK phosphorylation; assay: p38 MAPK and JNK phosphorylation in transfected cells; format: cell-based; settings: data not shown
From the text: Among nine tissues examined, both TAK1 long and short forms were expressed in every tissue assessed apart from kidney (FIG. 1B). TAK1 tissue-specific expression levels varied, with minimal lung expression detected. Both TAK1 splice variants were comparably expressed in the mesenchymal progenitor line, C3H10T½ (see FIG. 8A). TAK1 mutants generated from the long transcript form included dominant-negative (TAK1dn) and constitutively active (TAK1ca) variants as compared to wild-type control (TAK1wt).

Molecule: [NH2][Pt]([NH2])([Cl])[Cl] [CDDP, cisplatin]
- cell cycle effect [1]: arrested maturation in the G2-M phase
- apoptosis (subG0-G1 peak) [1]: did not cause measurable apoptosis

Molecule: COc1cc([C@@H]2c3cc4c(cc3[C@@H](O[C@@H]3O[C@@H]5CO[C@@H](C)O[C@H]5[C@H](O)[C@H]3O)[C@H]3COC(=O)[C@H]23)OCO4)cc(OC)c1O [etoposide]
- apoptosis (subG0-G1 peak) [1]: induced a significant subG0-G1 peak

- SMAD1:SMAD4 interaction [3]: enhanced
B1: TAK1wt: wild-type murine TAK1 (long splice form) cloned from kidney, expressed from plasmid in transfected cells (protein)
chain: MSTASAASSSSSSSASEMIEAPSQVLNFEEIDYKEIEVEEVVGRGAFGVVCKAKWRAKDVAIKQIESESERKAFIVELRQLSRVNHPNIVKLYGACLNPVCLVMEYAEGGSLYNVLHGAEPLPYYTAAHAMSWCLQCSQGVAYLHSMQPKALIHRDLKPPNLLLVAGGTVLKICDFGTACDIQTHMTNNKGSAAWMAPEVFEGSNYSEKCDVFSWGIILWEVITRRKPFDEIGGPAFRIMWAVHNGTRPPLIKNLPKPIESLMTRCWSKDPSQRPSMEEIVKIMTHLMRYFPGADEPLQYPCQYSDEGQSNSATSTGSFMDIASTNTSNKSDTNMEQVPATNDTIKRLESKLLKNQAKQQSESGRLSLGASRGSSVESLPPTSEGKRMSADMSEIEARIVATAAYSKPKRGHRKTASFGNILDVPEIVISGNGQPRRRSIQDLTVTGTEPGQVSSRSSSPSVRMITTSGPTSEKPARSHPWTPDDSTDTNGSDNSIPMAYLTLDHQLQPLAPCPNSKESMAVFEQHCKMAQEYMKVQTEIALLLQRKQELVAELDQDEKDQQNTSRLVQEHKKLLDENKSLSTYYQQCKKQLEVIRSQQQKRQGTS
modifications: left off: small tags and cut ends
notes: wild-type murine TAK1 (long splice form) cloned from kidney, expressed from plasmid in transfected cells
- binding of TAK1 variant to SMAD proteins (co-immunoprecipitation) [2]: able to interact
- maximum reduction of SMAD1 transcription (CAT reporter) [4]: 30%
- growth phenotype of C3H10T½-BMP2 cells expressing the TAK1 variant ([5]; after confluence): C3H10T½ wild-type phenotype
- osteoblast-like cell formation / ALP activity ([5]; compared to C3H10T½-BMP2 cells, 10 days post-confluence): interfered with osteoblast-like cell formation
- expression of osteogenic marker genes (osteocalcin, PTH/PTHrP receptor) [6]: down-regulated expression of osteogenic genes
- apoptosis (subG0-G1 peak) [1]: did not induce apoptosis
- biological activity as evidenced by p38 MAPK and JNK phosphorylation [7]: biologically active

B2: TAKDN: TAK1 Δ1-300 N-terminal deletion mutant (protein)
chain: PCQYSDEGQSNSATSTGSFMDIASTNTSNKSDTNMEQVPATNDTIKRLESKLLKNQAKQQSESGRLSLGASRGSSVESLPPTSEGKRMSADMSEIEARIVATAAYSKPKRGHRKTASFGNILDVPEIVISGNGQPRRRSIQDLTVTGTEPGQVSSRSSSPSVRMITTSGPTSEKPARSHPWTPDDSTDTNGSDNSIPMAYLTLDHQLQPLAPCPNSKESMAVFEQHCKMAQEYMKVQTEIALLLQRKQELVAELDQDEKDQQNTSRLVQEHKKLLDENKSLSTYYQQCKKQLEVIRSQQQKRQGTS
modifications: left off: small tags and cut ends
notes: TAK1 Δ1-300 N-terminal deletion mutant
- binding of TAK1 variant to SMAD proteins (co-immunoprecipitation) [2]: unable to bind significantly
